We go through 4 molecules from US20150218255A1 (US Dept. of Health and Human Services, published 2015).

The target of test [1] is T1, DENV envelope domain III, serotype 4 (antigen of the Biacore assays) (Dengue virus serotype 4 (consensus …, UniProt P09866 570-673)).
T1 construct: also called DIII serotype 4; DIII.4
Nature of the test: SPR (Biacore). For orientation: In SPR one partner is held on a chip, and binding of the other changes the refractive index at the surface.

The target in test [2] is T2, DENV envelope domain III, serotype 1 (antigen of the Biacore assays) (Dengue virus serotype 1 (consensus …, UniProt P17763 571-674)).
T2 construct: also called DIII serotype 1; DIII.1
T2 chain: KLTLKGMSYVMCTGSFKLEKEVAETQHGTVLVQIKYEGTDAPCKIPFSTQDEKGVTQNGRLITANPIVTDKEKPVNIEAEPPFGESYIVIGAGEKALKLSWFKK
The test is described as follows: SPR (Biacore).

The target in test [3] is T3, DENV envelope domain III, serotype 2 (antigen of the Biacore assays) (Dengue virus serotype 2 (consensus …, UniProt P14337 571-674)).
T3 construct: also called DIII serotype 2; DIII.2
The test is described as follows: SPR (Biacore).

Test [4] deals with T4, DENV envelope domain III, serotype 3 (antigen of the Biacore assays) (Dengue virus serotype 3 (consensus …, UniProt Q5UB51 569-672)).
T4 construct: also called DIII serotype 3; DIII.3
Nature of the test: SPR (Biacore).

Test [5] has as its target T1, DENV envelope domain III, serotype 4 …. Nature of the test: SPR (Biacore). The source holds these as a separate data set.
In test [6] the target is T2, DENV envelope domain III, serotype 1 …. Nature of the test: SPR (Biacore).
For test [7], the target named is T3, DENV envelope domain III, serotype 2 …. The test is described as follows: SPR (Biacore). This is another data set of the same source.
Test [8] addresses T4, DENV envelope domain III, serotype 3 …. The test is described as follows: SPR (Biacore). The source holds these as a separate data set.
The target of test [9] is T1, DENV envelope domain III, serotype 4 …. The test is described as follows: SPR (Biacore X100), scFv m366 immobilised on CM5, antigen injected, 1:1 Langmuir fit.
In test [10] the target is T2, DENV envelope domain III, serotype 1 …. The description is as above.
Test [11] deals with T3, DENV envelope domain III, serotype 2 …. The test is described as above.
Test [12] has as its target T4, DENV envelope domain III, serotype 3 …. Described as above.

T1 sequence (P09866 570-673 limits assumed): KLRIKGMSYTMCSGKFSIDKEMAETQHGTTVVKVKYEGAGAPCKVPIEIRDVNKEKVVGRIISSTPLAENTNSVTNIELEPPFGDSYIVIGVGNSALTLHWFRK
T3 sequence (P14337 571-674 limits assumed): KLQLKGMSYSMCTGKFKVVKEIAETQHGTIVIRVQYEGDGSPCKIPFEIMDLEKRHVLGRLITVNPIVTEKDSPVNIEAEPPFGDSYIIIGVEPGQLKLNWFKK
T4 sequence (Q5UB51 569-672 limits assumed): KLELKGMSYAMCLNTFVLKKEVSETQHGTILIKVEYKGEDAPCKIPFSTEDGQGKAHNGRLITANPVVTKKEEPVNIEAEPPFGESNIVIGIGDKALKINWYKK

B1: human anti-dengue virus antibody scFv m360 (scFv)
scFv: QVTLKESGPTLVKRTQTLTLTCTFFGFSLSTSGMRVSWIRQPPGKALEWIARIDWDDDKFYSISLKSRLTISKDTSKNQVVLTMTNMDPVDTATYYCARTPYNWNDGPRGAFDIWGQGTMVTVSSEGGGSGGGASSGGGSQSVLTQPPSVSAAPGQKVTIPCSGSYSNIRNNYVSWYQQLPGTAPKLLIYDDNKRPSGIPDRFSGSKSGTLATLVITGLQSGDEADYYCGTWDSSLSGVVFGGGTKLTVLG
notes: also called antibody m360
Usually Kd stands for a measure of binding affinity in units of concentration. A low value points to tighter binding. As for B1, the Kd in [1] was 82.8 nM; in test [2] it was 5.84 nM; in test [3] it was 5.13 nM; in test [4], 0.116 nM.

B2: human anti-dengue virus antibody scFv m360.6 (scFv)
scFv: KVTLKESGPTLVKPRQTLTLTCTFSGFSLSTSGMRVSWVRQPPGKALEWIARIDWDDDKFYSTSLKTRLTISKDTFKNQVVLTMTNMDPVDTAMYYCVRTPYNWNDGPRGALDIWGQGTMVTVSSGGDRSDGGASGGGGSQSMLTQSPSVSAAPGQNVTISCSGDYPNIRNNYVSWYQQLPGAAPKLLIYDNNKRPSGIPDRFSGSKSGTSATLDITGLQTGDEADYYCGAWDSRLSAVVFGGGTKLTVLG
notes: also called antibody m360.6
Regarding B2, the Kd in test [5] is 33 nM; in [6] it was 0.31 nM; in test [7], 0.24 nM; in test [8], 0.0023 nM.

B3: human anti-dengue virus antibody scFv m366 (scFv)
scFv: QLQLQESGGGLVQPGGSLRLSCAASGFTFSSYSMNWVRQAPGKRLEWVSSISGSSSYIYYADSVKGRFTISRDNAKNSLYLQMDSLRAEDTAVYYCARYAAGIWTFDIWGQGTTVTVSSGGGGSGGGASGGGGSSYELTQPPSVSVAPGKTASISCGGDNIGRKSVHWFQQKPGQAPVLVLYDDSDRPSGIPARFSGSNSGNTATLTISRVEAGDEADYYCQVWARSSDHPNWVFGGGTKLTVLG
notes: also called antibody m366
What is called koff is the rate constant with which the complex falls apart. The low end stands for slow dissociation, the high end for fast dissociation. As a reminder, the kon is a measure of how fast the partners come together. Consider B3, for which the Kd is 12.4 nM in test [9], 6.14 nM in test [10], 2.51 nM in [11] and 1.09 nM in test [12]. In test [12], this molecule displayed a koff of 0.000204 s⁻¹. The kon in test [12] was 186000 M⁻¹ s⁻¹.

B4: human anti-dengue virus antibody scFv m366.6 (scFv)
scFv: QLQLQESGGGLVQPGGSLRLSCAASGFTFSSHSMNWIRQAPGKRLEWVSSISSSSSYIYYADSVRGRFTISRDNAKNSLYLQMDSLRAEDTAVYYCARYMAGIWTFDIWGQGTMVTVSSGGGGSGGGASGGGGSSYELTQPPSVSVAPGKTASISCGGDNIGRKSVHWFQQKPGQAPVLVLYDDSDRPSGIPARFSGSNSGNTATLTISGVEAGDEADYYCQVWARSSDLPNWVFGGGTKLTVLG
notes: also called antibody m366.6
Regarding B4, the Kd in test [5] stood at 0.75 nM; in test [6] it was 0.44 nM; in test [7], 0.29 nM; in [8] it was 0.27 nM.
